In the supplement of paper PMC11246515:
± gives the standard deviation of the averaged measurements.

Assay: total protein half-life in vivo (active degradation + dilution); higher = more stable protein
[1] = E. coli NCM3722 delta-clpP delta-lon delta-hslV, growth: N-lim chemostat, doubling time 6 h
[2] = E. coli NCM3722 delta-clpP, growth: N-lim chemostat, doubling time 6 h
[3] = E. coli NCM3722 delta-hslV, growth: N-lim chemostat, doubling time 6 h
[4] = E. coli NCM3722 delta-lon, growth: N-lim chemostat, doubling time 6 h
[5] = wild type E. coli NCM3722, growth: C-lim chemostat, doubling time 3 h
[6] = wild type E. coli NCM3722, growth: C-lim chemostat, doubling time 6 h
[7] = wild type E. coli NCM3722, growth: N-lim chemostat, doubling time 6 h
[8] = E. coli NCM3722 delta-smpB, growth: N-lim chemostat, doubling time 6 h
[9] = wild type E. coli NCM3722, growth: C-lim chemostat, doubling time 12 h
[10] = wild type E. coli NCM3722, growth: N-lim chemostat, doubling time 12 h
[11] = wild type E. coli NCM3722, growth: P-lim chemostat, doubling time 6 h
[12] = wild type E. coli NCM3722, growth: P-lim chemostat, doubling time 12 h

Sequence | total protein half-life in vivo [1] | total protein half-life in vivo [2] | total protein half-life in vivo [3] | total protein half-life in vivo [4] | total protein half-life in vivo [5] | total protein half-life in vivo [6] | total protein half-life in vivo [7] | total protein half-life in vivo [8] | total protein half-life in vivo [9] | total protein half-life in vivo [10] | total protein half-life in vivo [11] | total protein half-life in vivo [12]
MGDIMRPIPFEELLTRIFDEYQQQRSIFGIPEQQFYSPVKGKTVSVFGETCATPVGPAAGPHTQLAQNIVTSWLTGGRFIELKTVQILDRLELEKPCIDAEDECFNTEWSTEFTLLKAWDEYLKAWFALHLLEAMFQPSDSGKSFIFNMSVGYNLEGIKQPPMQQFIDNMMDASDHPKFAQYRDTLNKLLQDDAFLARHGLQEKRESLQALPARIPTSMVHGVTLSTMHGCPPHEIEAICRYMLEEKGLNTFVKLNPTLLGYARVREILDVCGFGYIGLKEESFDHDLKLTQALEMLERLMALAKEKSLGFGVKLTNTLGTINNKGALPGEEMYMSGRALFPLSINVAAVLSRAFDGKLPISYSGGASQLTIRDIFDTGIRPITMATDLLKPGGYLRLSACMRELEGSDAWGLDHVDVERLNRLAADALTMEYTQKHWKPEERIEVAEDLPLTDCYVAPCVTACAIKQDIPEYIRLLGEHRYADALELIYQRNALPAITGHICDHQCQYNCTRLDYDSALNIRELKKVALEKGWDEYKQRWHKPAGSGSRHPVAVIGAGPAGLAAGYFLARAGHPVTLFEREANAGGVVKNIIPQFRIPAELIQHDIDFVAAHGVKFEYGCSPDLTIEQLKNQGFHYVLIATGTDKNSGVKLAGDNQNVWKSLPFLREYNKGTALKLGKHVVVVGAGNTAMDCARAALRVPGVEKATIVYRRSLQEMPAWREEYEEALHDGVEFRFLNNPERFDADGTLTLRVMSLGEPDEKGRRRPVETNETVTLLVDSLITAIGEQQDTEALNAMGVPLDKNGWPDVDHNGETRLTDVFMIGDVQRGPSSIVAAVGTARRATDAILSRENIRSHQNDKYWNNVNPAEIYQRKGDISITLVNSDDRDAFVAQEAARCLECNYVCSKCVDVCPNRANVSIAVPGFQNRFQTLHLDAYCNECGNCAQFCPWNGKPYKDKITVFSLAQDFDNSSNPGFLVEDCRVRVRLNNQSWVLNIDSKGQFNNVPPELNDMCRIISHVHQHHHYLLGRVEV | 6.26 ± 1.4 h | 5.57 h | 5.57 h | 6.62 h | 2.86 ± 0.32 h | 6.06 h | 6.49 h | – | – | – | – | –
MGFKCGIVGLPNVGKSTLFNALTKAGIEAANFPFCTIEPNTGVVPMPDPRLDQLAEIVKPQRTLPTTMEFVDIAGLVKGASKGEGLGNQFLTNIRETEAIGHVVRCFENDNIIHVSGKVNPADDIEVINTELALADLDTCERAIHRVQKKAKGGDKDAKAELAVLEKCLPQLENAGMLRALDLSAEEKAAIRYLSFLTLKPTMYIANVNEDGFENNPYLDQVREIAAKEGSVVVPVCAAVEADIAELDDEERDEFMQELGLEEPGLNRVIRAGYKLLNLQTYFTAGVKEVRAWTIPVGATAPQAAGKIHTDFEKGFIRAQTISFEDFITYKGEQGAKEAGKMRAEGKDYIVKDGDVMNFLFNV [P0ABU2] | 3.92 ± 0.14 h | 3.74 ± 0.63 h | 3.66 ± 0.24 h | 4.72 ± 0.67 h | 3.61 ± 0.17 h | 4.77 ± 0.28 h | 3.5 ± 0.18 h | 3.69 ± 0.13 h | 9.13 ± 0.49 h | 5.15 ± 0.31 h | 5.12 ± 0.4 h | 9.68 ± 0.37 h
MGFLSGKRILVTGVASKLSIAYGIAQAMHREGAELAFTYQNDKLKGRVEEFAAQLGSDIVLQCDVAEDASIDTMFAELGKVWPKFDGFVHSIGFAPGDQLDGDYVNAVTREGFKIAHDISSYSFVAMAKACRSMLNPGSALLTLSYLGAERAIPNYNVMGLAKASLEANVRYMANAMGPEGVRVNAISAGPIRTLAASGIKDFRKMLAHCEAVTPIRRTVTIEDVGNSAAFLCSDLSAGISGEVVHVDGGFSIAAMNELELK [P0AEK4] | 5.4 ± 0.09 h | 5.37 ± 0.42 h | 5.299 ± 0.046 h | 5.88 ± 0.25 h | 3.26 ± 0.14 h | 5.9 ± 1.1 h | 5.28 ± 0.18 h | 4.97 ± 0.28 h | 11 ± 1.2 h | 10.2 ± 2 h | 6.19 ± 0.08 h | 13.74 ± 0.13 h
MGHKPLYRQIADRIREQIARGELKPGDALPTESALQTEFGVSRVTVRQALRQLVEQQILESIQGSGTYVKEERVNYDIFQLTSFDEKLSDRHVDTHSEVLIFEVIPADDFLQQQLQITPQDRVWHVKRVRYRKQKPMALEETWMPLALFPDLTWQVMENSKYHFIEEVKKMVIDRSEQEIIPLMPTEEMSRLLNISQTKPILEKVSRGYLVDGRVFEYSRNAFNTDDYKFTLIAQRKSSR | 5.56 ± 0.42 h | 5.47 ± 0.059 h | 5.26 ± 0.32 h | 4.83 ± 0.42 h | 2.985 ± 0.0092 h | – | 5.354 ± 0.041 h | 4.99 ± 0.07 h | – | 9.53 ± 0.028 h | 5.8 ± 0.12 h | 12.1 ± 1.1 h
MGIFKAKNPCTKNTIFTTSNTLIYGGFMISLNDFYEQICRKRRDLAYHMSECEWAVDTDVLEEDHPEIRIELGRMREQFWSSEKIGTRVRLYSCDVPWETRHHTVNGQLEIKEEYTELYDPAQECWKNLSSNLTKETFLPLVIEPFSINDIFKAHLMFASISFFWGKSIMSENENVAFKAFHRAAELFDKCIGMTWFNISVCNQKKLSEVRRSAGKKGGKSKAEVYHIIQLKLVELINDSVPNDGWKNKVVAVNELIEPLWDFIQMSEFEINNQNKKYRVATMSQDALVDTILNQWSLKNEDVKQAFDSAVRRKKRSK | 5.49 ± 0.65 h | – | – | – | – | – | – | – | – | – | – | –
MGIIAQNKISSLGMLFGAIALMMGIIHFSFGPFSAPPPTFESIVADKTAEIKRGLLAGIKGEKITTVEKKEDVDVDKILNQSGIALAIAALLCAFIGGMRKENRWGIRGALVFGGGTLAFHTLLFGIGIVCSILLIFLIFSFLTGGSLV | – | – | – | – | – | – | 5.09 h | – | – | – | – | –
MGIKQHNGNTKADRLAELKIRSPSIQLIKFGAIGLNAIIFSPLLIAADTGSQYGTNITINDGDRITGDTADPSGNLYGVMTPAGNTPGNINLGNDVTVNVNDASGYAKGIIIQGKNSSLTANRLTVDVVGQTSAIGINLIGDYTHADLGTGSTIKSNDDGIIIGHSSTLTATQFTIENSNGIGLTINDYGTSVDLGSGSKITTDGSTGVYIGGLNGNNANGAARFTATDLTIDVQGYSAMGINVQKNSVVDLGTNSTIKTNGDNAHGLWSFGQVSANALTVDVTGAAANGVEVRGGTTTIGADSHISSAQGGGLVTSGSDAIINFTGTAAQRNSIFSGGSYGASAQTATAVVNMQNTDITVDRNGSLALGLWALSGGRITGDSLAITGAAGARGIYAMTNSQIDLTSDLVIDMSTPDQMAIATQHDDGYAASRINASGRMLINGSVLSKGGLINLDMHPGSVWTGSSLSDNVNGGKLDVAMNNSVWNVTSNSNLDTLALSHSTVDFASHGSTAGTFATLNVENLSGNSTFIMRADVVGEGNGVNNKGDLLNISGSSAGNHVLAIRNQGSEATTGNEVLTVVKTTDGAASFSASSQVELGGYLYDVRKNGTNWELYASGTVPEPTPNPEPTPAPAQPPIVNPDPTPEPAPTPKPTTTADAGGNYLNVGYLLNYVENRTLMQRMGDLRNQSKDGNIWLRSYGGSLDSFASGKLSGFDMGYSGIQFGGDKRLSDVMPLYVGLYIGSTHASPDYSGGDGTARSDYMGMYASYMAQNGFYSDLVIKASRQKNSFHVLDSQNNGVNANGTANGMSISLEAGQRFNLSPTGYGFYIEPQTQLTYSHQNEMTMKASNGLNIHLNHYESLLGRASMILGYDITAGNSQLNVYVKTGAIREFSGDTEYLLNNSREKYSFKGNGWNNGVGVSAQYNKQHTFYLEADYTQGNLFDQKQVNGGYRFSF | – | > 8 h | 6.81 ± 1.4 h | 5.53 ± 0.71 h | – | – | 7.13 h | 5.18 ± 1 h | > 16 h | 11.6 ± 0.3 h | 4.97 ± 1.4 h | 12.5 ± 2.7 h
MGKEVMGKKENEMAQEKERPAGSQSLFRGLMLIEILSNYPNGCPLAHLSELAGLNKSTVHRLLQGLQSCGYVTTAPAAGSYRLTTKFIAVGQKALSSLNIIHIAAPHLEALNIATGETINFSSREDDHAILIYKLEPTTGMLRTRAYIGQHMPLYCSAMGKIYMAFGHPDYVKSYWESHQHEIQPLTRNTITELPAMFDELAHIRESGAAMDREENELGVSCIAVPVFDIHGRVPYAVSISLSTSRLKQVGEKNLLKPLRETAQAISNELGFTVRDDLGAIT | 6.16 ± 0.066 h | 6.38 ± 0.83 h | 5.57 ± 0.36 h | 5.84 ± 0.19 h | 2.91 ± 0.036 h | 6.07 ± 0.19 h | 5.86 ± 0.21 h | 5.29 ± 0.3 h | 12.6 ± 1.2 h | 9.57 ± 0.79 h | 6.38 ± 1.8 h | 11.2 ± 2.3 h
